{"source": "the DeepSol protein solubility set"}
{"experiment": "soluble on expression in E. coli; label from the status in PepcDB or PDB records"}
{"sequence": "MGSDKIHHHHHHMAHEAQKAIARNSLLIRSLPEQHVDALLSQAVWRSYDRGETLFLQEEKAQAIHVVIDGWVKLFRMTPTGSEAVVSVFTRGESFGEAVALRNTPYPVSAEAVTPCEVMHIPSPVFVSLMRRDPEICISILATTFGHLHSLVAQLEQLKAQTGAQRVAEFLLELCDCDTGACEVTLPYDKMLIAGRLGMKPESLSRAFSRLKAAGVTVKRNHAEIEDIALLRDYAESDPADSWSKS", "soluble on expression in E. coli": "not soluble"}
{"sequence": "MAHHHHHHMSSSAVPAYEGKQKVYALLNGTFHAAIVLEVAEDATEGGFLYYVRYVEQDSRLDQWLQASDIKERHQGRTHHGSSCTHQQYTPSGIKTRRQSHVTEQQNAETAVLTGEGVGMPTEVSANAKGGGAAPHLVKVSKTRARRDSAFFSRTKNIYSICMGPHEVETWYFSPYHLARPEVQQRLQAASQCVTGSTELQLVQSTTSPGGTSGVSTGIADVGGGAGGTGNVSVGAGGSGRGSGAGMRQWPIATRSFSLHICPYCLRPFLDNAAVVRHLQQDCLRHPPGNEIYRDPVRRLVVLELDGSLEPTFCEHLALLSKLFLEHKALDHDMTPFLFYVLCSVETHGLQVLGYFSKEKQTPEPYNLSCILVLPQYQSRGIGRFLIELSYELSRREGKVGTPEKPLSDLGEKLYLSYWADSVTMAIARAMEEGHCVSVDYLVQATAMIQADVIRALQHQKLLNGHQLTISEDIVERCYTKRLTKERDITSYTFYTHLLSWAPGFYEEFRGVPPAPTFVPWRDPSAPHSRTGG", "soluble on expression in E. coli": "not soluble"}
{"sequence": "TKDFSWDTTLSFTWSKEKINSLPTGDLIKENLFEGQPIHALYDYKYAGIWGSNVPQETLDAYGVKPGWVKIETLDKDGDGGVHKYGEDDRQILGHTNPDVILGLNNTLTYKNFDLSIFAMARYGQTIKSSLIGWYRASSNYSINQPAGVDYWTENNQGAYYPVPGSGDEQKVMSALTYRDGSFIKVKNITLGYTLPQSVSRKVLMEKCRFYATAYNPFLYVKDKELRGTDPETNGSDAFPLYKQFVFGINVTF", "soluble on expression in E. coli": "not soluble"}
{"sequence": "MARFSGKSVIITGSSNGIGRSAAVIFAKEGAQVTITGRNEDRLEETKQQILKAGVPAEKINAVVADVTEASGQDDIINTTLAKFGKIDILVNNAGANLADGTANTDQPVELYQKTFKLNFQAVIEMTQKTKEHLIKTKGEIVNVSSIVAGPQAHSGYPYYACAKAALDQYTRCTAIDLIQHGVRVNSVSPGAVATGFMGAMGLPETASDKLYSFIGSRKECIPVGHCGKPEEIANIIVFLADRNLSSYIIGQSIVADGGSTLVMGMQTHDLMSVLSQ", "soluble on expression in E. coli": "soluble"}
{"sequence": "MSVYTTAQLLAVNEKKFKFDPLFLRIFFRETYPFSTEKVYLSQIPGLVNMALYVSPIVSGKVIRSRGGSTSEFTPGYVKPKHEVNPLMMTLRLPDEDPQNVADPVYRRRRIILQNMKDEELAIAQVEEKQAVSAVLSGKYTMTGEAFEPVEVDMGRSAGNNIVQAGAAAWSTRDKETYDPTDDIEAYALNARGVVNIIVFDPKGWALFRSFKAVEKKLDTRRGSNSELETAVKDLGMAVSYKGMFGDVAIVVYSGQYVENDVKKNYLPDLTMVLGNTQARGLRTYGCILDADAQREGIDAST", "soluble on expression in E. coli": "not soluble"}
{"sequence": "MGSDKIHHHHHHMVFPISLEGYHLEEVVIIGGGVAGLSCLNALLDQGISALLIEGSTIGTPKMCGEFLAPIAAQQLQLWDVDPLIPIPHAAFYAGIRQLDIHFTKPSAAISRSDVELKLAARARRLGGRIRENTYLEYTTPATERTPFYFKLSTGEIIEAKSAFFATGKLSNNKDNKKIALPYFGFKLHFSHTENDHSLKMFSLDKAYLGIVPITETISNCACLAKREAVDAATSPEEHFRHLTQSHPVLKKIFTPLDLSAIDILSGRAPAFTQKKPPNWPNSYWIGDTLASLYPAIGSGFAHSVDSAIQAVQSYLKQQPKLYRINYSKSIKTKVLLGNVFNAALLQPKVGQLALPLLKRSPKLVNLVLKKLDYV", "soluble on expression in E. coli": "not soluble"}
{"sequence": "MIYEFCAENVTLLEKAMQAGARRIELCDNLAVGGTTPSYGVTKAAVELAANYDTTIMTMIRPRGGDFVYNDLEIAIMLEDIRLTAQAGSQGVVFGALTADKKLDKPNLEKLIAASKGMEIVFHMAFDELSDEDQAEAIDWLSQAGVTRILTRAGVSGDSLEKRFVHYHRILEYAKGKIEILPGGGIDLENRQTFIDQVGVTQLHGTKVVFLEHHHHHH", "soluble on expression in E. coli": "soluble"}
{"sequence": "MDNKVILVGGFHEIIELCEDNDIEIAGIIDNYLTNDTYWGYPIIGTDDKAKVLFETYKNVPVLITPDVPHVRYKLYHYYKSIGFQVASLISRDASISRSAIIGEGTIIQRGANLSSNIKIGQMVKVNTNANIMHDCLIGNYVTVAPNAVLLGKVEIDDKAYIGANATLLPSVKIGENVTVGAGSVVTKSVRLEHHHHHH", "soluble on expression in E. coli": "not soluble"}
{"sequence": "AHHHHHHGSGEKRKTRQAEVNIGMVGHVDHGKTTLTKALTGVWTDTHSEELRRGITIKIGFADAEIRRCSNCGRYSTSPICPYCGHETEFIRRVSFIDSPGHEALMTTMLAGASLMDGAILVIAANEPCPRPQTREHLMALQIIGQKNIIIAQNKIELVDKEKALENYRQIKEFIKGTVAENAPIIPISALHGANIDVLVKAIEEFIPTPKRDSNKPPKMLVLRSFDVNKPGTPPEKLVGGVLGGSIVQGKLKVGDEIEIRPGVPYEEHGRIKYEPITTEIVSLQAGGQFVEEAYPGGLVGIGTKLDPYLTKGDLMAGNVVGKPGKLPPVWTDLRLEVHLLERVVGTEQELNVEPIKRKEVLLLNVGTARTMGLVTALGKDEIELKLQIPVCAEPGERVAISRQIGSRWRLIGYGIIKE", "soluble on expression in E. coli": "not soluble"}
{"sequence": "MPQTPPFPVMYGSTNGYNKNLYKAKEEDYEGLYYHDNNLISGSLEALIEHLVPTVAYYPDRTYIFTFLLSSRLFLHPYELMSKVCHLCVDQQRLSDPQADKARVRKIAPKILQLLTEWTETFPYDFRDERMMKSLKELTHRLSTGEDLYRKAVQQMTQTLIRKLTTLSQYEEALAKINSSVTDRLTVLKTKPQSIQRDILTICNDPFTLAQQLTHIELERLSYIGPEEFVQAFVQKDPLDNDKNCFSDHKKASNLEAYVEWFNRLSYLVATEICMPVKKKHRARVIEFFIDVARECFNIGNFNSLMAIITGMNMSPVSRLKKTWAKVKTAKFDILEHQMDPSSNFYNYRTALRGATQRSITAHSSREKIVIPFFSLLIKDIYFLNEGCANRLPNGHVNFEKFWGLAKQVTEFMTWKKVECPFDRDRKILQYLLTAPVFSEDALYLASYESEGPENNMEKDRWKSLRSSLLNRT", "soluble on expression in E. coli": "soluble"}
{"sequence": "MCGRFVLFTTDESLLGHPALRIFHSIHAPKGMPPARYNIAPTTIIPILRVGTTPTEAVIEPARWGLIPAWKREVTLPPLFNARAETVTTKPSFRQAFSTQRCAIPMDGYYEWHNKKPYWITTGAPTWVAGLWDSGAGMLSATMITTDSVAPLDWLHHRMPRFLNNDELAVWLRGSADEASGLLTPGDASAFHTSLADPSVGNIRNDYPELIDAPTDLFSL", "soluble on expression in E. coli": "not soluble"}
{"sequence": "LQTVCLKGTKHMKCFLAFTQTKTFHEASEDCISRGGTLSTPQTGSENDALYEYLRQSVGNEAEIWLGLNKRWSRYFWVDMTGTRIAYKNWEHSSDAQPDPSNWENCAVLSGAANGKWFGKRCRDQLPYICQFGI", "soluble on expression in E. coli": "soluble"}
{"sequence": "SNAKVTVGKSAPYFSLPNEKGEKLSRSAERFRNRYLLLNFWASWCDPQPEANAELKRLNKEYKKNKNFAMLGISLDIDREAWETAIKKDTLSWDQVCDFTGLSSETAKQYAILTLPTNILLSPTGKILARDIQGEALTGKLKELLKTE", "soluble on expression in E. coli": "soluble"}
{"sequence": "MSLNPKQVSQKLANKPKDRPIAFVSKPDSLTQCLTPVFTNSEGYVSVSDCEEAIDARYDVFSRIAWKLRDGWVCLSAENEKYNQGKRLILRPCVIDDKTQSFTIKDNMLYTPDLRFVVRIANGFLTLQKSQSKGAQSNLILHNMQEWLDTIATPAPLMQKGFIAWKFISPQGFDVYYLRNNESIKNDPQELYFNLENGIIAQYDSASAKMFCLTSKQNAKQDWNWASWEECLQQNLRENKAAPSKLNAQNWKLFMFADNDSAMLKDYLGNFLRVTKYGSNWGVPYTAKADYLAKDTNEGQTSYFQFRHDMQDWERFKNANLSDSLPTCPANGSYAKNLKASVKLPPSFVLTQEWKKRLWQIATTTDGVLERAGDCGVCLLHSYQMIAEMNEYTATPLESGGFFFDTAFGRNPFTSFRARYPMLAASLEQYRASNTPPGLSRSAVFAYAAQMYRAIALSLFPGHFWLSSEFATSDVTIRSALRDLFQQPAGTLWVVQMYYVARDGSFNGHGMPVLRTGDGIQFIPTNLTNMNYEGYERALSNSFAHNLREAYNVVTRNGTLNLYMLYSLRLREIYPNPINAFVSNNNCSGEGEDRRGTRNMPLSRFINQCASGRCVLQEGHHHHHH", "soluble on expression in E. coli": "not soluble"}
{"sequence": "MGSDKIHHHHHHVSLLGEERKSQIMQWLEEEGKVMTKDLIDRLDVSGETVRRYLEELERERQLKRVYGGAIYQGGKQESPISRRTDQLSRRLARYAKGWLADYSCIFLGKGEPVEHLLPYLSGSATIVTNSLSIASHLEQCRETGPFHGEIRLLGGTVDSYGQTVGVEVLQALDAYAFDASFLTFDGAEIERGFVSDDIESSLIQKAIIGRTKDVYAFLACDEFEGNRKYKVAEFRRAKIVLSPSTYPPSWEMKLFNERVNWTVVS", "soluble on expression in E. coli": "not soluble"}
{"sequence": "MHDAATSMPPQAPSTWADYLAGYRWRGQGEGCSAATVHRLEAARRPTLFVKQEVLSAHAELPAEIARLRWLHGAGIDCPQVLNETQSDGRQWLLMSAMPGDTLSALAQRDELEPERLVRLVAAALRRLHDLDPAACPFDHRLERRLDTVRQRVEAGLVDEADFDDDHRGRSATELYRLLLDRRPAVEDLVVAHGDACLPNLLAEGRRFSGFIDCGRLGVADRHQDLALAARDIEAELGAAWAEAFLVEYGGDIDGERLAYFRLLDEFF", "soluble on expression in E. coli": "soluble"}
{"sequence": "MQSVDVAIVGGGMVGLAVACGLQGSGLRVAVLDHVVPQPLANDASPQLRVSAINAASEKLLTRLGVWSNIVARRASCYHGMEVRDKDSFGRITFDDASMGYSHLGHIVENSVIHYALWQKAQQAADITLMAPAELQQVAWGENDAFLTLKDGAMLTARLVIAADGANSWLRNKADIPLTFWDYRHHALVATIRTEEPHGAVARQVFHGEGILAFLPLSDPHLCSIVWSLSPQDAERMQQSGDEAFNQALTIAFDNRLGLCRLESERQVFPLTGRYARQFAAHRLALVGDAAHTIHPLAGQGVNLGFMDAAELVDNLRRLQRQGKDIGQHLYLRRYERSRKHSAAMMLAGMQGFRDLFAGENPAKKLLRDIGLKLADTLPGVKPQLLRQAMGLNDLPQWLRLEHHHHHH", "soluble on expression in E. coli": "not soluble"}
{"sequence": "MSSLTKQFVITQSVKNVSSIADGGEHVTPSEIHYGTEWYMRIKRDNGFMSFGLYCPMTGKTTNWSIVADIRVELMPLTGMWKSVECECKIAKSPSLISEVLRSTIMPWGRMMTNYVVDDALMIEVFVTIKSMTGFERPYNLRSFDESMEEFSDVVLLVGEKKFYVLRKYLAAQSKYFKALLLGSFEEGKSSEVTLTSIDPNDFQFFLEVLYGDSAINDLTVEGILHIADMYDTPMVVRKCEEFLIKGTKLPAKKKLQMAFRYKMENFMVLFFGNIQRKVFNFFRETTTLN", "soluble on expression in E. coli": "not soluble"}
{"sequence": "MGSSHHHHHHSSGLVPRGSSTYRDIVVKKEDGFTQIVLSTRSTEKNALNTEVIKEIVNALNSAAADDSKLVLFSAAGSVFCCGLDFGYFVKHLRNNRNTASLEMVDTIKNFVNTFIQFKKPIVVSVNGPAIGLGASILPLCDLVWANEKAWFQTPYTTFGQSPDGCSSITFPKMMGKASANEMLIAGRKLTAREACAKGLVSQVFLTGTFTQEVMIQIKELASYNPIVLEECKALVRCNIKLELEQANERECEVLRKIWSSAQGIESMLKIPLLGYKAAFPPRKTQNDQRW", "soluble on expression in E. coli": "soluble"}
{"sequence": "MIITVTAFKGGVGKTTSSIHLAAYLNNKAPTILIDGDLNRSALLWASHEKLDFPVVDEREGLKAARNYEHIVVDTPARPEIEEIRSLARGCDLMILPTSPDALSMGALQANIQTFKQLNIPNFRILMTIVPPKPSTAGTEAKEYLQSLGLPVFKRMITRYAAFPKAALEGCVVRDVKGDRYAGAGWNDYKTVGGEIYGLEHHHHHH", "soluble on expression in E. coli": "soluble"}
